Assay results: the supplement of paper PMC12042874
± gives the uncertainty stated by the source.

assay: amyloid nucleation score (Sup35N fusion, yeast selection) (log enrichment); library NNK2; higher = more nucleation; inactive = no reads after selection
Outline: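 Yeast lacking psi expressed peptides of 20 random codons fused to Sup35N, received 100 μM copper sulfate for 24 hours, and were then grown for 7 days at 30°C on medium lacking adenine and uracil. Illumina sequencing of input and output plasmid inserts provided the reads. Nucleation scores are DiMSum log enrichments of output over input, centred on the mode of non-aggregating sequences. Any sequence with under 100 input reads was excluded.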

| Substance | amyloid nucleation score |
| --- | --- |
| ATRCGDFDQACHSGIT | 0.749 ± 0.28 |
| ATVRFWWKFVYACGMAWWWV | 0.001 ± 0.55 |
| AVCTESMLWS | 0.057 ± 0.16 |
| AVDSHVIYSV | -0.96 ± 0.45 |
| AVPMMSWSFIVSYVGRNNSM | 1.7 ± 0.19 |
| AVSFWSIF | 0.307 ± 0.64 |
| AVVFSNCGCFSMKFYMVVAT | -2.06 ± 0.48 |
| AVWCDFHSERAMCVVGM | 5.249 ± 0.043 |
| AWCFSWHQKLLAR | 0.471 ± 0.36 |
| AWDGIHTMMITYLKFIEKCQ | -1.31 ± 0.62 |
| AWGGSRNRMYFYHSPVRFFE | 4.5 ± 0.088 |
| AWGYDKAVIFGAVDLQHVGT | 0.062 ± 0.79 |
| AYAKGYCLLSPVLDWRLHFS | 2.52 ± 0.13 |
| AYCFVGFALVRCVGANDVRR | 1.6 ± 0.22 |
| AYEGFISYLIYLSIRNSSPC | inactive |
| AYHNLRN | 0.191 ± 0.63 |
| AYIDVTWWPFVFLDQVMYTT | 0.089 ± 0.48 |
| AYINRHVEWRCTVRTVALSS | 0.664 ± 0.38 |
| AYIVDTKVT | 1.11 ± 0.68 |
| AYSSMCSTMRNKCCL | 0.504 ± 0.6 |
| AYTMQLNHRLVLSVSS | 0.219 ± 0.74 |
| CAGMWRFMGMVFGISTLFQC | -1.44 ± 0.41 |
| CAKGPKSWQNGNE | 0.626 ± 0.8 |

| Substance | amyloid nucleation score |
| --- | --- |
| CANFRSGYGA | -0.241 ± 0.35 |
| CAPDVQWFSKIAFE | 1.1 ± 0.53 |
| CAPFVRDFINMVCRRMPNTN | 0.566 ± 0.66 |
| CARSWLRVLGTSPEKMKG | 0.627 ± 0.74 |
| CASAFCLTRE | 4.49 ± 0.057 |
| CASMVIMG | inactive |
| CCGGVRMMEELRCSTWSRVV | 0.868 ± 0.26 |
| CCQSFNVNRSTLNNLGRSYL | 0.848 ± 0.16 |
| CCTTIEGDTLCGCFWD | 10.08 ± 0.038 |
| CCVGGVPV | 2.57 ± 0.083 |
| CCVVIKN | 6.08 ± 0.079 |
| CDFLWWPTQFANRRTKVGVW | 0.083 ± 0.76 |
| CDKFFLDF | -1.9 ± 0.48 |
| CDLKERTEYMHFLLTFYLVR | -0.891 ± 0.36 |
| CDSVLPRLLNYKYTKNK | 0.14 ± 0.63 |
| CECVSSCVYSVILLGCTRSF | inactive |
| CEDSCSSCNGILLDVREERS | 1.89 ± 0.076 |
| CFDEFTLCKVLWNMFSTFLG | -0.707 ± 1.1 |
| CFGVRDSGRYFDTLSNVRSR | 1.11 ± 0.68 |
| CFKLTNINAL | inactive |
| CFLMNKVT | -1.5 ± 0.49 |
| CFLVDFHVARSVDSYVELGS | -0.436 ± 1.1 |
| CFRKFRMEEPLGIRFSHLDT | -0.345 ± 0.21 |

| Substance | amyloid nucleation score |
| --- | --- |
| CFSLYSCKDSINDMLKRSQN | -1.12 ± 1.1 |
| CFSSIQIRDKTVVGDSWMFR | 3.58 ± 0.14 |
| CFVKRLHVLWLSKTVCRAVL | 0.113 ± 0.21 |
| CFWWNPGSILIRWCLKVLPG | -1.59 ± 0.54 |
| CGLNCVAGGREEDRVYVLSS | 0.088 ± 0.22 |
| CGMISLSSNVMSFALPFLYY | 0.824 ± 0.15 |
| CGNISQVKEDLRMTTLIFRV | inactive |
| CGNNCTQYRHDWWGGMKLRD | 2.38 ± 0.085 |
| CGQLSVWYEGMINVSCFLEI | -1.4 ± 0.75 |
| CGRLGLHYQCMLCCGIGSIL | 2.23 ± 0.27 |
| CGRRILSRWVITLLVPGGSF | inactive |
| CGRVTTFSLRNVARVCVSAF | -0.308 ± 0.25 |
| CHCWSELIQIFII | 5.86 ± 0.061 |
| CHSGVFRVKSCTEYRMGLYS | inactive |
| CHVCFRETARYMCVGWYYGS | -0.283 ± 0.65 |
| CHVVVVLEF | 2.71 ± 0.078 |
| CHYKMHSLHTARFEFFVMLF | -0.413 ± 0.41 |
| CICLIMRTKTCELGSLLG | 5.781 ± 0.046 |
| CIDRFHTVPLAVHSVCGILL | -0.319 ± 0.76 |
| CIFWVRCKFYGNLNFGCLYD | 7 ± 0.078 |
| CIGYKLLLGELLAP | 0.137 ± 0.5 |
| CIIVISFLTITWKCAEPELQ | inactive |
| CIMCGALEIGFGIIRGWEDF | 9.421 ± 0.067 |
